B1: polyhistidine-tagged TFG-1 amino-terminus (amino acids 1-195) (domain or fragment, C. elegans, UniProt Q9U1W1 1-195, looked up)
chain: MVHSNGAITSTILKARHADVVRKTSLHHANDLTLIDLVLNVQRLLALPSDANFVLKYKDEEGDLVTLAEDSDLLLALHTSGATLDVTVVVDSRAREAVHDVQKQVEQIKLDVGKLLGALSALDVAQIAEQSNTSVANLSAPKQSHHDNIVFQKSFEAAPPSPVPSEKAELPATIQPSVHEQFNHRPAHVEEEIPL
B2: polyhistidine-tagged full length TFG-1 (natural protein, C. elegans, UniProt Q9U1W1 1-486, looked up)
chain: MVHSNGAITSTILKARHADVVRKTSLHHANDLTLIDLVLNVQRLLALPSDANFVLKYKDEEGDLVTLAEDSDLLLALHTSGATLDVTVVVDSRAREAVHDVQKQVEQIKLDVGKLLGALSALDVAQIAEQSNTSVANLSAPKQSHHDNIVFQKSFEAAPPSPVPSEKAELPATIQPSVHEQFNHRPAHVEEEIPLENHYAPPPHQQIPDDLNTSFSSQPPPPIEQFGAIPPPNATIPSFPTSNAASPPVQEFAPPPPQQQQQQFQAPPPPMASHSSISSTPVQQQGFAPPQQFGGPPPSGPPSEYGGYAPPQQQQQQFGAPPPQGAPQQGFGAPPQGPPQGGPPQGSFGAPPPQQFHAPSPQSFGGPPPPVSSAPGNFAPPPQSGPPGAFAPPPSAFGAPQGPGGPGGYGPPPPGGPGAPGSYGPPQGGPGGFGPPPPGGPGAYGPPPTGFPPVGAPPPGAAGAPGGNPFARGPSATGYRQSPYQQ

Biological target: the molecule itself
Experiment: SEC + other: glycerol gradient sedimentation

Row | Protein | stoichiometry N
1 | B1 | 8
2 | B2 | 6

Source: article PMC3311221 (Nature cell biology, 2011)
